Test results published in patent US20090305973A1, “NOVEL PEPTIDE AND USE THEREOF” (priority 2006, published 2009).
Where no end group is shown, it is not given here.

How the values were obtained:
[1] = tested on: Human foreskin fibroblast cells; experiment: Fibroblast proliferation, tritium-labeled thymidine incorporation; format: cell-based; details: for activity of inducing the proliferation of fibroblast cells: 100 nM, 12 hours, incorporated thymidine
Protocol: (§1) Human foreskin fibroblast cells (MC1232 obtained from MIT), U2OS cells (ATCC HTB-96) and bovine aorta endothelial cells (hereinafter, referred to as “BAECs”) were treated with the AIMP1 fragments cleaved by elastase 2 in Test Example <1-1>, and the effects of the AIMP1 fragments on the proliferation of the cells were examined.
(§2) Bovine aorta endothelial cells (BAECs) were isolated from bovine descending thoracic aorta and cultured in Dulbecco's modified Eagle's medium (DMEM) containing 20% FBS at 37° C. in a 5% CO2 atmosphere. The foreskin fibroblast cells and the U2OS cells were cultured in DMEM with 10% FBS and 1% antibiotic. Each of the cultured cell lines (5×10^3 cells) was cultivated in a 24-well dish for 12 hours and then subjected to serum-starved culture for 3 hours. Next, 100 nM of a full-length AIMP1 or fragments of AIMP1 cleaved with an enzyme were added to each well and cultivated for 12 hours. The control group was without the testing agents. After completion of the cultivation, tritium-labeled thymidine (1 μCi/well) was added to each well, and the cells were additionally cultured at 37° C. for 4 hours. The cultured cells were washed with PBS three times and fixed with 5% TCA for 10 minutes, followed by washing again with PBS three times. The cells were lysed with 0.5N NaOH, and the incorporated thymidine was quantified with a liquid scintillation counter.
In order to examine the fibroblast proliferation activities of the recombinant proteins constructed in Example 1, foreskin fibroblast cells were treated with each of the recombinant proteins in the same manner as in Test Example <1-2>, and the proliferation of the fibroblast cells was examined.
Whether the AIMP1-(6-46) fragment synthesized in Example <3-1> stimulates the proliferation of fibroblast cells was examined in the same manner as in Test Example <1-2>. Herein, the AIMP1-(6-46) fragment was used at various concentrations ([…]), and 100 nM of the full-length AIMP1 (AIMP1-(1-132)) was used as a control.

C57BL/6 mice = experiment: In vivo wound healing (wound closure) of excised back skin wound; details: 200 nM in PBS containing 20% glycerol, applied to wound twice a day until day 8, 0.5 cm-diameter back wound
Protocol: AIMP1-(14-34) (SEQ ID NO: 6) and AIMP1-(26-46) (SEQ ID NO: 7) fragments smaller than the AIMP1-(6-46) fragment synthesized in Example 3 were synthesized by a chemical synthetic method in Peptron (http://www.peptron.co.kr), and the wound healing-promoting activities thereof were analyzed in vivo. The analysis of the wound healing activities was performed using 8-week-old C57BL/6 mice. The mice were anesthetized with an intraperitoneal injection of 2.5% avertin (100 μl/10 g), and then the back of each animal was shaved, followed by disinfecting the back skin with 70% alcohol. The back skin was marked with a 0.5 cm-diameter circle, and a skin and panniculus carnosus muscle was removed with scissors to induce a wound. The wounds were left uncovered without a dressing. One wound was generated per mouse and treated with 200 nM of each of AIMP1-(14-34), AIMP1-(26-46) and AIMP1-(6-46) fragments in PBS (phosphate-buffered saline) containing 20% glycerol, twice a day at 12-hour intervals until day 8 after wounding. A control group was treated only with PBS containing 20% glycerol. Then, wound closure was monitored daily using the Image-pro Plus software and was calculated as the percentage of the initial wound area.

[2] = tested on: bovine aorta endothelial cells; experiment: Endothelial cell proliferation, tritium-labeled thymidine incorporation; format: cell-based; details: 100 nM, 12 hours, BAECs, incorporated thymidine
Protocol: as §1, §2

## AIMP1-(1-46): recombinant deletion mutant of AIMP1, expressed as GST-tag fusion protein (MANNDAVLKRLEQKGAEADQIIEYLKQQVSLLKEKAILQATLREEK; also: GST tag fusion, end not given here; listed as Homo sapiens)
[1]; foreskin fibroblast cells
  activity of inducing the proliferation of fibroblast cells: high proliferation-inducing activity

## AIMP1-(1-53): recombinant deletion mutant of AIMP1, expressed as GST-tag fusion protein (MANNDAVLKRLEQKGAEADQIIEYLKQQVSLLKEKAILQATLREEKKLRVENA; also: GST tag fusion, end not given here; listed as Homo sapiens)
[1]; foreskin fibroblast cells
  activity of inducing the proliferation of fibroblast cells: high proliferation-inducing activity

## AIMP1-(14-34): 21-amino-acid fragment of AIMP1-(6-46), chemically synthesized (KGAEADQIIEYLKQQVSLLKE; PEPTIDE (1)..(21) AIMP1-(14-34); listed as Homo sapiens)
C57BL/6 mice
  activity of promoting wound healing (wound closure as percentage of the initial wound area): had the activities of promoting wound healing

## AIMP1-(26-46): 21-amino-acid fragment of AIMP1-(6-46), chemically synthesized (KQQVSLLKEKAILQATLREEK; PEPTIDE (1)..(21) AIMP1-(26-46); listed as Homo sapiens)
C57BL/6 mice
  activity of promoting wound healing (wound closure as percentage of the initial wound area): had the activities of promoting wound healing

## NH2-AVLKRLEQKGAEADQIIEYLKQQVSLLKEKAILQATLREEK-COOH (H-AVLKRLEQKGAEADQIIEYLKQQVSLLKEKAILQATLREEK-OH; listed as Homo sapiens) [AIMP1-(6-46), peptide corresponding to amino acids 6-46 of AIMP1, expressed in E. coli]
[1]; concentrations 0, 50, 100 and 200 mM (so in the source), foreskin fibroblast cells
  proliferation of fibroblast cells, dose dependence: induced the proliferation of fibroblast cells in a dose-dependent manner
[1]; control 100 nM full-length AIMP1
  fibroblast proliferation activity compared with full-length AIMP1 at the same concentration: almost similar to the full-length AIMP1
C57BL/6 mice
  activity of promoting wound healing (wound closure as percentage of the initial wound area): had the activities of promoting wound healing

B1: AIMP1-(54-192): recombinant deletion mutant of AIMP1, expressed as GST-tag fusion protein (protein, UniProt Q12904 54-192, looked up, fragment)
chain: KLKKEIEELKQELIQAEIQNGVKQIPFPSGTPLHANSMVSENVIQSTAVTTVSSGTKEQIKGGTGDEKKAKEKIEKKGEKKEKKQQSIAGSADSKPIDVSRLDLRIGCIITARKHPDADSLYVEEVDVGEIAPRTVVSG
modifications: GST tag
notes: recombinant deletion mutant of AIMP1, expressed as GST-tag fusion protein
[1]; foreskin fibroblast cells
  activity of inducing the proliferation of fibroblast cells: did not

B2: AIMP1-(114-192): recombinant deletion mutant of AIMP1, expressed as GST-tag fusion protein (protein, UniProt Q12904 114-192, looked up, fragment)
chain: KGGTGDEKKAKEKIEKKGEKKEKKQQSIAGSADSKPIDVSRLDLRIGCIITARKHPDADSLYVEEVDVGEIAPRTVVSG
modifications: GST tag
notes: as for B1
[1]; foreskin fibroblast cells
  activity of inducing the proliferation of fibroblast cells: did not

B3: AIMP1-(193-312): recombinant deletion mutant of AIMP1, expressed as GST-tag fusion protein (protein, UniProt Q12904 193-312, looked up, fragment)
chain: LVNHVPLEQMQNRMVILLCNLKPAKMRGVLSQAMVMCASSPEKIEILAPPNGSVPGDRITFDAFPGEPDKELNPKKKIWEQIQPDLHTNDECVATYKGVPFEVKGKGVCRAQTMSNSGIK
modifications: GST tag
notes: as for B1
[1]; foreskin fibroblast cells
  activity of inducing the proliferation of fibroblast cells: did not

B4: AIMP1-(6-192): recombinant deletion mutant of AIMP1, expressed as GST-tag fusion protein (protein, listed as Homo sapiens)
chain: AVLKRLEQKGAEADQIIEYLKQQVSLLKEKAILQATLREEKKLRVENAKLKKEIEELKQELIQAEIQNGVKQIAFPSGTPLHANSMVSENVIQSTAVTTVSSGTKEQIKGGTGDEKKAKEKIEKKGEKKEKKQQSIAGSADSKPIDVSRLDLRIGCIITARKHPDADSLYVEEVDVGEIAPRTVVSG
modifications: GST tag fusion; PEPTIDE (1)..(187) AIMP1-(6-192)
notes: as for B1
[1]; foreskin fibroblast cells
  activity of inducing the proliferation of fibroblast cells: high proliferation-inducing activity

B5: AIMP1-(101-192): recombinant deletion mutant of AIMP1, expressed as GST-tag fusion protein (protein, UniProt Q12904 101-192, looked up, fragment)
chain: AVTTVSSGTKEQIKGGTGDEKKAKEKIEKKGEKKEKKQQSIAGSADSKPIDVSRLDLRIGCIITARKHPDADSLYVEEVDVGEIAPRTVVSG
modifications: GST tag
notes: as for B1
[1]; foreskin fibroblast cells
  activity of inducing the proliferation of fibroblast cells: did not

B6: AIMP1-(30-192): recombinant deletion mutant of AIMP1, expressed as GST-tag fusion protein (protein, UniProt Q12904 30-192, looked up, fragment)
chain: SLLKEKAILQATLREEKKLRVENAKLKKEIEELKQELIQAEIQNGVKQIPFPSGTPLHANSMVSENVIQSTAVTTVSSGTKEQIKGGTGDEKKAKEKIEKKGEKKEKKQQSIAGSADSKPIDVSRLDLRIGCIITARKHPDADSLYVEEVDVGEIAPRTVVSG
modifications: GST tag
notes: as for B1
[1]; foreskin fibroblast cells
  activity of inducing the proliferation of fibroblast cells: did not

B7: AIMP1-(1-312): full-length ARS-interacting multi-functional protein 1 consisting of 312 amino acids (protein, listed as Homo sapiens)
chain: MANNDAVLKRLEQKGAEADQIIEYLKQQVSLLKEKAILQATLREEKKLRVENAKLKKEIEELKQELIQAEIQNGVKQIAFPSGTPLHANSMVSENVIQSTAVTTVSSGTKEQIKGGTGDEKKAKEKIEKKGEKKEKKQQSIAGSADSKPIDVSRLDLRIGCIITARKHPDADSLYVEEVDVGEIAPRTVVSGLVNHVPLEQMQNRMVILLCNLKPAKMRGVLSQAMVMCASSPEKIEILAPPNGSVPGDRITFDAFPGEPDKELNPKKKIWEQIQPDLHTNDECVATYKGVPFEVKGKGVCRAQTMSNSGIK
[1]; foreskin fibroblast cells
  activity of inducing the proliferation of fibroblast cells: high proliferation-inducing activity
[2]
  activity of inhibiting the proliferation of endothelial cells: inhibiting the proliferation of endothelial cells

B8: AIMP1-(47-192): recombinant deletion mutant of AIMP1, expressed as GST-tag fusion protein (protein, UniProt Q12904 47-192, looked up, fragment)
chain: KLRVENAKLKKEIEELKQELIQAEIQNGVKQIPFPSGTPLHANSMVSENVIQSTAVTTVSSGTKEQIKGGTGDEKKAKEKIEKKGEKKEKKQQSIAGSADSKPIDVSRLDLRIGCIITARKHPDADSLYVEEVDVGEIAPRTVVSG
modifications: GST tag
notes: as for B1
[1]; foreskin fibroblast cells
  activity of inducing the proliferation of fibroblast cells: did not

B9: AIMP1-(1-192): recombinant deletion mutant of AIMP1, expressed as GST-tag fusion protein (protein, listed as Homo sapiens)
chain: MANNDAVLKRLEQKGAEADQIIEYLKQQVSLLKEKAILQATLREEKKLRVENAKLKKEIEELKQELIQAEIQNGVKQIAFPSGTPLHANSMVSENVIQSTAVTTVSSGTKEQIKGGTGDEKKAKEKIEKKGEKKEKKQQSIAGSADSKPIDVSRLDLRIGCIITARKHPDADSLYVEEVDVGEIAPRTVVSG
modifications: GST tag fusion; PEPTIDE (1)..(192) AIMP1-(1-192)
notes: as for B1
[1]; foreskin fibroblast cells
  activity of inducing the proliferation of fibroblast cells: high proliferation-inducing activity
